Substrate: NCC(=O)CCC(=O)O
Experiment: The Michaelis-Menten rate of reaction catalyzed by ALA dehydratase from Bacillus subtilis measured spectrophotometrically

B1: Delta-aminolevulinic acid dehydratase (Homo sapiens), P13716 (protein)
chain: MQPQSVLHSGYFHPLLRAWQTATTTLNASNLIYPIFVTDVPDDIQPITSLPGVARYGVKRLEEMLRPLVEEGLRCVLIFGVPSRVPKDERGSAADSEESPAIEAIHLLRKTFPNLLVACDVCLCPYTSHGHCGLLSENGAFRAEESRQRLAEVALAYAKAGCQVVAPSDMMDGRVEAIKEALMAHGLGNRVSVMSYSAKFASCFYGPFRDAAKSSPAFGDRRCYQLPPGARGLALRAVDRDVREGADMLMVKPGMPYLDIVREVKDKHPDLPLAVYHVSGEFAMLWHGAQAGAFDLKAAVLEAMTAFRRAGADIIITYYTPQLLQWLKEE
Km: 241 µM [middle of 4 runs]
